Results on 13 proteins are retold here after patent US20100216853.

The labels stand for the following.
B1: semi-synthetic p300 HAT domain E1505R (protein)
chain: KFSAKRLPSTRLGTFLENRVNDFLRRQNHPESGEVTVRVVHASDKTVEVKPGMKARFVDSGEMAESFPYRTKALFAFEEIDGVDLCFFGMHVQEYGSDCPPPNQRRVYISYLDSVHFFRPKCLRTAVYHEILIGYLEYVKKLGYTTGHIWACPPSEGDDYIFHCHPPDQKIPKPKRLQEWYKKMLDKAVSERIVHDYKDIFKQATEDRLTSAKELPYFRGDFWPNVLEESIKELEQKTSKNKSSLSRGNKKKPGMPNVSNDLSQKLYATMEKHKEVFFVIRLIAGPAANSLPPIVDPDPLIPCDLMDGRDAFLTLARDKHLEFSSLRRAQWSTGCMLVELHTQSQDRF
B2: semi-synthetic p300 HAT domain R1410K (protein)
chain: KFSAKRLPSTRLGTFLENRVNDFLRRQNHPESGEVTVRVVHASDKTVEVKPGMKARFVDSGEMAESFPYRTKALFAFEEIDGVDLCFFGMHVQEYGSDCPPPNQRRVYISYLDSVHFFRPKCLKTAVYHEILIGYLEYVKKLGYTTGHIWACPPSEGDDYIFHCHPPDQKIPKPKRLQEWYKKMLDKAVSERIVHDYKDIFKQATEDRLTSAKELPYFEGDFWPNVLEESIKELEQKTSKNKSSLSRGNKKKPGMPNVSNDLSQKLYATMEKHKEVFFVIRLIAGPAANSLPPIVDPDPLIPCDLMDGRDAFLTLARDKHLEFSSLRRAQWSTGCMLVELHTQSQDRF
B3: semi-synthetic p300 HAT domain E1505R/D1625R/D1628R triple mutant (protein)
chain: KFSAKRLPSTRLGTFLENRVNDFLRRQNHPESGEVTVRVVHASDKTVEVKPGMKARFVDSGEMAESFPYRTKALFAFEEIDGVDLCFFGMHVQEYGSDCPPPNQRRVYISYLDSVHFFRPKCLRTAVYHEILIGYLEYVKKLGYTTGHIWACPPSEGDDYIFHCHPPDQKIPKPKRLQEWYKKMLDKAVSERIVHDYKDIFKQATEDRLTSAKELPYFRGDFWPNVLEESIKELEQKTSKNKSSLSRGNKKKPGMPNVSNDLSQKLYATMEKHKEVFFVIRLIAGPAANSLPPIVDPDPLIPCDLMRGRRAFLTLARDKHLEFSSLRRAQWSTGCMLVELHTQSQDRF
B4: semi-synthetic p300 HAT domain D1628R (protein)
chain: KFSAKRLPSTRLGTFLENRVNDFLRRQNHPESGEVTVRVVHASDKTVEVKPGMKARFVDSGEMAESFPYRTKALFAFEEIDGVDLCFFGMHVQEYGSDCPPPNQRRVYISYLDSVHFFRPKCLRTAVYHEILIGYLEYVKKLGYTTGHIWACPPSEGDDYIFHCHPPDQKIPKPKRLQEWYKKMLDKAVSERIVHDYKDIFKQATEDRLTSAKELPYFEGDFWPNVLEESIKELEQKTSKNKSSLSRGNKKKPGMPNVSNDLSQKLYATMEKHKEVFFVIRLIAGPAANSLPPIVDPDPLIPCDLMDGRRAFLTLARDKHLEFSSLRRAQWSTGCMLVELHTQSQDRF
B5: semi-synthetic p300 HAT domain T1357L (protein)
chain: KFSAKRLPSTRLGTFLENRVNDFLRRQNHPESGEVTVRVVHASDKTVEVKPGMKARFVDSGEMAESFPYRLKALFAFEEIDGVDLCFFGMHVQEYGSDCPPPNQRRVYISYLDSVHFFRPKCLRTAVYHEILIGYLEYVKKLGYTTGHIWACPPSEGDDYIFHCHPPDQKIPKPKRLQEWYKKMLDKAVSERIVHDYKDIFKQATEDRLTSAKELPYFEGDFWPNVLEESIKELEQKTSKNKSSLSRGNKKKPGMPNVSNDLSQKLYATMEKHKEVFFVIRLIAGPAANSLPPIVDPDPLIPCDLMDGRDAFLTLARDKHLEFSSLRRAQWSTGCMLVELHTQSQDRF
B6: semi-synthetic p300 HAT domain H1434A (protein)
chain: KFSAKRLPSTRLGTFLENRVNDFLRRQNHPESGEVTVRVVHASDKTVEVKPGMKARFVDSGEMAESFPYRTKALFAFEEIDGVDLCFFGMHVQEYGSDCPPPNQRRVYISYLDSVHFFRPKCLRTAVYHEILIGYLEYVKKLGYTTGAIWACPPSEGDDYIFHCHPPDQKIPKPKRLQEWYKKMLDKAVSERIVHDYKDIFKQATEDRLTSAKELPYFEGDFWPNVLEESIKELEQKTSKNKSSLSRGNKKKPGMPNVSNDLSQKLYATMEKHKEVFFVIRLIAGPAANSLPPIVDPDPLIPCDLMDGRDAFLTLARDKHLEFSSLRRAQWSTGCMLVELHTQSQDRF
B7: semi-synthetic p300 HAT domain R1410A (protein)
chain: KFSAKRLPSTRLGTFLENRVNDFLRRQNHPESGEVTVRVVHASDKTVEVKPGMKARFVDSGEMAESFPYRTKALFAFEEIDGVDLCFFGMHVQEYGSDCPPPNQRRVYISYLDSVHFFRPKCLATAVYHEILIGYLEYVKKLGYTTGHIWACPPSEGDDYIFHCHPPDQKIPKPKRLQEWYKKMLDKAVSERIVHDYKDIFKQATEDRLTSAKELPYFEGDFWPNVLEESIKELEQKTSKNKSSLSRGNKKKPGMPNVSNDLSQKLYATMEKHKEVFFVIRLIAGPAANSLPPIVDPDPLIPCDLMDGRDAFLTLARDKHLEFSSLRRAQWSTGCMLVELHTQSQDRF
B8: semi-synthetic p300 HAT domain W1436A (protein)
chain: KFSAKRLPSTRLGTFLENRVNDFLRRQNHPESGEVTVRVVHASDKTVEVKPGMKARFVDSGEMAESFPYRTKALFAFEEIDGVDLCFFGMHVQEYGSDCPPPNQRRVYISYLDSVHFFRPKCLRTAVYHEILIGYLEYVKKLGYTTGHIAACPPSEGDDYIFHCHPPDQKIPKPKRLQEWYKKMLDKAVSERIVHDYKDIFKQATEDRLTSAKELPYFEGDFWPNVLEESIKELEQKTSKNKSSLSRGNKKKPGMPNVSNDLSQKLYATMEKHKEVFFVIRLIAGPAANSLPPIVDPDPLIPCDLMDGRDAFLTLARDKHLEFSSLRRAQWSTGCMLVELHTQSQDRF
B9: semi-synthetic p300 HAT domain D1625R (protein)
chain: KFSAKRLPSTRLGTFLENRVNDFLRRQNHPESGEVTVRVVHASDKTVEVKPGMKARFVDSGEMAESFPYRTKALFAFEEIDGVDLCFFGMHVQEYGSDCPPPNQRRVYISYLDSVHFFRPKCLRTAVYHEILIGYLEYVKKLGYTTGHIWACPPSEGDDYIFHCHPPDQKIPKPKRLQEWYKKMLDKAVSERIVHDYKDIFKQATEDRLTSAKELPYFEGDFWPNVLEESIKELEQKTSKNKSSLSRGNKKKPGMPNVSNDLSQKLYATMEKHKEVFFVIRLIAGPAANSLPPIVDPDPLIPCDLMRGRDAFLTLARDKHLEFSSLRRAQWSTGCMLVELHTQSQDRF
B10: semi-synthetic p300 HAT domain Y1467F (protein)
chain: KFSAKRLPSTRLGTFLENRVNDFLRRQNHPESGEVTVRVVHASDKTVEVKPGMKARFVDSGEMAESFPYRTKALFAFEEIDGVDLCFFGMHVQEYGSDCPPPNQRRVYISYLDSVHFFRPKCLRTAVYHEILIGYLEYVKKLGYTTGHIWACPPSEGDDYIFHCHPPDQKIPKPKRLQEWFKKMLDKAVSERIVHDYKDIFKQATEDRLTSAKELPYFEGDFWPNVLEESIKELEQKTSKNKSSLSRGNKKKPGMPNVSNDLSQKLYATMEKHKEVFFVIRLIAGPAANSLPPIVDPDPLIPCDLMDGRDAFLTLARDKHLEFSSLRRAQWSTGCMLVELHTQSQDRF
B11: semi-synthetic p300 HAT domain Y1394F (protein)
chain: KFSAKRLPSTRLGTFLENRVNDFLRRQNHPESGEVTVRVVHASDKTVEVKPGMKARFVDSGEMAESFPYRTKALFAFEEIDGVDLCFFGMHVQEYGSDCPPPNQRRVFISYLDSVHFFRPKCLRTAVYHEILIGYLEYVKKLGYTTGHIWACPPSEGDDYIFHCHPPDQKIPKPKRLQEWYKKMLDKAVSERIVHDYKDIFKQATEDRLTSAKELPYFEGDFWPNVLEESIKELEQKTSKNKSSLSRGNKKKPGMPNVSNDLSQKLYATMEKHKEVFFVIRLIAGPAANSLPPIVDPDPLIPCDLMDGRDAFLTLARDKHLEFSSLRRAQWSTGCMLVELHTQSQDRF
B12: semi-synthetic p300 HAT domain T1357R (protein)
chain: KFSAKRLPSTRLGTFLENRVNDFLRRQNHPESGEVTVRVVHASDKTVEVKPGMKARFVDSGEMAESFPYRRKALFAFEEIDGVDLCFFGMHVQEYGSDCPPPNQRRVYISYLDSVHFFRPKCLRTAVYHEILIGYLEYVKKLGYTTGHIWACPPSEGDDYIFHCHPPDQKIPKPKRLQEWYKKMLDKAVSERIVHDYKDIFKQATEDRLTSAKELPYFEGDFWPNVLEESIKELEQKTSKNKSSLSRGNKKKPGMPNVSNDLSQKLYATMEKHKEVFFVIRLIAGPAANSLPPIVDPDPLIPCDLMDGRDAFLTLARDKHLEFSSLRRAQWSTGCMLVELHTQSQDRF
B13: semi-synthetic p300 HAT domain S1396R/Y1397R double mutant (protein)
chain: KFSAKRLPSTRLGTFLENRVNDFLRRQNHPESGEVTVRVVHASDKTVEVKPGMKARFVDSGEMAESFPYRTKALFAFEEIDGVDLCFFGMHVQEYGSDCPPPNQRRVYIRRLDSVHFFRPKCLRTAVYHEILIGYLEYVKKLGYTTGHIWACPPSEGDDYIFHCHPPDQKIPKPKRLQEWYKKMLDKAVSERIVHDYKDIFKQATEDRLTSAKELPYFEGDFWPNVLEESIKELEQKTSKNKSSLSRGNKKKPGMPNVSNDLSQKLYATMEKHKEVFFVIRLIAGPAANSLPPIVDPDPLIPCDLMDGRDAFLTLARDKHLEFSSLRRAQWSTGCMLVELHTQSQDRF

This data set has as its target T1, H4-15 histone H4 tail peptide.
T1 chain: GRGKGGKGLGKGGAK
Turning to B1, the “Km(µM) for H4-15” value was more than 1000, the V/K stood at 2000 M⁻¹ s⁻¹ and the “V/K decrease against wild-type” value is “V/K was decreased by 12-fold”.
Take B2: the Km(µM) for H4-15 is 156 µM.
With B3, the “Km(µM) for H4-15” value is recorded as more than 1000 and the V/K turned out to be 232 M⁻¹ s⁻¹.
Consider B4, for which the “Km(µM) for H4-15” value is reported as more than 1000, the V/K was found to be 2100 M⁻¹ s⁻¹ and the “V/K decrease against wild-type” value was “V/K was decreased by 12-fold”.
In the case of B5, the Km(µM) for H4-15 amounted to 111 µM and the V/K was found to be 18700 M⁻¹ s⁻¹.
Take B6: the Km(µM) for H4-15 came to 151 µM.
With B7, the Km(µM) for H4-15 was found to be 190 µM.
On to B8, for which the Km(µM) for H4-15 amounted to 394 µM.
Consider B9, for which the Km(µM) for H4-15 was determined as 640 µM, the V/K was 5670 M⁻¹ s⁻¹ and the “V/K decrease against wild-type” value is “a V/K decrease of about 5-fold”.
For the protein B10, the Km(µM) for H4-15 came out at 520 µM.
As to B11, the Km(µM) for H4-15 came out at 136 µM.
Take B12: the Km(µM) for H4-15 is 294 µM and the V/K came out at 13200 M⁻¹ s⁻¹.
As to B13, the “decrease of p300 HAT activity against wild-type” value is recorded as “severely decreased p300 HAT activity (>50-fold)”.
